Patent US20260242478A1 (published 2026)

Tests used:
[1] = molecular target: T1, PSMA Fab (biotinylated (site not stated)); assay: clonal phage ELISA on captured PSMA Fab pre-incubated with PSMA antigen as competitor, anti-M13 HRP detection;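 note: crude clonal phage supernatants tested by ELISA, wells first treated with blocking buffer plus PSMA antigen, bound phage read out via HRP-linked anti-M13 antibody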
T1 construct: Biotinylated PSMA Fab captured on neutravidin plates for the clonal phage ELISA; also called Anti-PSMA Fab; 006 PSMA Fab

[2] = molecular target: T1, PSMA Fab; assay: clonal phage ELISA on biotinylated PSMA Fab captured on neutravidin, blocking buffer alone, anti-M13 HRP detection;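 note: clonal phage were tested as crude supernatants, and the signal reflects phage still bound to the wells after washing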
Protocol: (§1) Clonal phage were harvested as crude supernatants and screened via standard ELISAs. […] Prior to the addition of clonal phage. wells were incubated with blocking buffer and PSMA antigen or blocking buffer alone. Without washing or aspirating, clonal phage supernatants were then added to the wells and incubated for a short time. Wells were then washed followed by detection of bound phage using a horse radish conjugated anti-M13 antibody.

[3] = molecular target: T2, Anti-PSMA Fab (biotinylated (site not stated)); assay: clonal phage ELISA on plate-captured biotinylated PSMA Fab, blocking buffer alone
T2 construct: Biotinylated PSMA Fab captured on neutravidin coated plates; also called 006 PSMA Fab

[4] = molecular target: T2, Anti-PSMA Fab; assay: clonal phage ELISA on plate-captured biotinylated PSMA Fab, wells pre-incubated with PSMA antigen as competitor
Protocol: as §1

[5] = molecular target: T3, PSMA Fab (006 PSMA Fab); assay: phage binding ELISA; biotinylated PSMA Fab on neutravidin plate, clonal phage supernatant, anti-M13 HRP detection;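 note: wells were preincubated with blocking buffer either containing PSMA antigen or without it before crude phage supernatant was added, briefly incubated, then washed prior to detection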
T3 construct: also called Anti-PSMA Fab; anti-PSMA Fab
Protocol: as §1

[6] = molecular target: T4, 006 PSMA Fab; assay: clonal phage ELISA; biotinylated PSMA Fab captured on neutravidin plate, blocking buffer alone; bound phage detected with anti-M13 HRP
T4 construct: In the phage ELISA the PSMA Fab was biotinylated and captured on neutravidin coated plates; also called Anti-PSMA Fab
Protocol: as §1

[7] = molecular target: T4, 006 PSMA Fab; assay: clonal phage ELISA; biotinylated PSMA Fab captured on neutravidin plate, wells pre-incubated with PSMA antigen as competitor; bound phage detected with anti-M13 HRP
Protocol: as §1

Binder	Phage binding ELISA signal, Anti-PSMA Fab [3]	phage binding ELISA signal (Anti-PSMA Fab with PSMA) [4]	Phage binding ELISA signal, Anti-PSMA Fab [6]	Phage binding ELISA signal, Anti-PSMA Fab with PSMA antigen [7]	other results
DARLCTPLWMCTGF [Phage-3972]	–	–	–	–	Phage binding ELISA signal, Anti-PSMA Fab in presence of PSMA antigen [1]: 0.0622; Phage binding ELISA signal, Anti-PSMA Fab [2]: 0.781
QQVRCVPDWMCSGF [Phage-3974]	–	–	–	–	Phage binding ELISA signal, Anti-PSMA Fab in presence of PSMA antigen [1]: 0.0755; Phage binding ELISA signal, Anti-PSMA Fab [2]: 0.762
YERVCVPSWMCNSL (tested as crude clonal phage supernatant) [Phage-3955]	0.838	0.0845	–	–	–
PGFWCQPKWMCEGF (Tested as clonal phage supernatant; not shown: fused to the pIII filament protein of the bacteriophage) [Phage-3935 (Peptide-180 library clone)]	–	–	–	–	Phage binding ELISA signal, Anti-PSMA Fab [5]: 0.93
AEMLCVPPWMCKAF (tested as crude clonal phage supernatant) [Phage-3959]	0.823	0.0615	–	–	–
EFRECRPPWMCQGL [Phage-3944]	–	–	0.899	0.0789	–
AVHMCAPSWMCSGF [Phage-3952]	–	–	0.87	0.0825	–
EGGYCVPTWMCSGF (tested as crude clonal phage supernatant) [Phage-3960]	0.822	0.0786	–	–	–
STLLCTPEWMCFGM [Phage-3969]	–	–	–	–	Phage binding ELISA signal, Anti-PSMA Fab in presence of PSMA antigen [1]: 0.0553; Phage binding ELISA signal, Anti-PSMA Fab [2]: 0.789
GLPQCVPPWMCDGF (tested as crude clonal phage supernatant) [Phage-3953]	0.864	0.056	–	–	–
LTPVCRPAWMCLEL (Tested as clonal phage supernatant; not shown: fused to the pIII filament protein of the bacteriophage) [Phage-3937 (Peptide-180 library clone)]	–	–	–	–	Phage binding ELISA signal, Anti-PSMA Fab [5]: 0.922
YARECIPQWMCGGF [Phage-3939]	–	–	0.918	0.0765	–
VQTRCVPAWMCDGF [Phage-3971]	–	–	–	–	Phage binding ELISA signal, Anti-PSMA Fab in presence of PSMA antigen [1]: 0.0744; Phage binding ELISA signal, Anti-PSMA Fab [2]: 0.782
FDGWCVPAWMCYPF (tested as crude clonal phage supernatant) [Phage-3962]	0.816	0.0796	–	–	–
FFQVCEPQWMCLGF (tested as crude clonal phage supernatant) [Phage-3954]	0.854	0.0548	–	–	–
LVSWCTPPWMCEGV (tested as crude clonal phage supernatant) [Phage-3961]	0.818	0.131	–	–	–
GSVFCIPTWMCEQS (tested as crude clonal phage supernatant) [Phage-3966]	0.813	0.07	–	–	–
DVLMCKPEWMCLGY (tested as crude clonal phage supernatant) [Phage-3956]	0.837	0.0628	–	–	–
SYMRCEPEWMCSGL [Phage-3970]	–	–	–	–	Phage binding ELISA signal, Anti-PSMA Fab in presence of PSMA antigen [1]: 0.121; Phage binding ELISA signal, Anti-PSMA Fab [2]: 0.786
LTVYCTPEWMCSGW [Phage-3948]	–	–	0.882	0.0749	–
ILPRCEPYWMCTGL [Phage-3950]	–	–	0.872	0.0634	–

Binder	Phage binding ELISA signal, Anti-PSMA Fab [3]	phage binding ELISA signal (Anti-PSMA Fab with PSMA) [4]	Phage binding ELISA signal, Anti-PSMA Fab [6]	Phage binding ELISA signal, Anti-PSMA Fab with PSMA antigen [7]	other results
GDIQCRPLWMCDGL [Phage-3942]	–	–	0.907	0.128	–
ISAECRPPWMCIGF (tested as crude clonal phage supernatant) [Phage-3963]	0.815	0.0626	–	–	–
TAPWCQPRWMCDGF (tested as crude clonal phage supernatant) [Phage-3958]	0.828	0.0701	–	–	–
GWVGCVPLWMCEGF [Phage-3949]	–	–	0.878	0.0698	–
LVRMCQPPWMCDGF [Phage-3941]	–	–	0.912	0.0699	–
WVRLCQPAWMCTGL (Tested as clonal phage supernatant; not shown: fused to the pIII filament protein of the bacteriophage) [Phage-3936 (Peptide-180 library clone)]	–	–	–	–	Phage binding ELISA signal, Anti-PSMA Fab [5]: 0.926
PLTSCVPQWMCYGF [Phage-3940]	–	–	0.913	0.0873	–
TQVKCIPLWMCDGF [Phage-3947]	–	–	0.885	0.0544	–
MQDFCKPLWMCSGF (Tested as clonal phage supernatant; not shown: fused to the pIII filament protein of the bacteriophage) [Phage-3938 (Peptide-180 library clone)]	–	–	–	–	Phage binding ELISA signal, Anti-PSMA Fab [5]: 0.921
EIGACVPDWMCRGF [Phage-3968]	–	–	–	–	Phage binding ELISA signal, Anti-PSMA Fab in presence of PSMA antigen [1]: 0.0694; Phage binding ELISA signal, Anti-PSMA Fab [2]: 0.809
QMSMCKPAWMCTGL [Phage-3973]	–	–	–	–	Phage binding ELISA signal, Anti-PSMA Fab in presence of PSMA antigen [1]: 0.0909; Phage binding ELISA signal, Anti-PSMA Fab [2]: 0.767
MATMCVPQWMCAGF (tested as crude clonal phage supernatant) [Phage-3965]	0.814	0.141	–	–	–
EAKWCTPQWMCGGF [Phage-3975]	–	–	–	–	Phage binding ELISA signal, Anti-PSMA Fab in presence of PSMA antigen [1]: 0.0703; Phage binding ELISA signal, Anti-PSMA Fab [2]: 0.756
STMSCVPSWMCLGF [Phage-3946]	–	–	0.885	0.0614	–
ITRMCTPSWMCMSF (tested as crude clonal phage supernatant) [Phage-3964]	0.814	0.078	–	–	–
TVRSCTPPWMCEGF [Phage-3951]	–	–	0.871	0.0856	–
GGVMCRPMWMCAGF [Phage-3967]	–	–	–	–	Phage binding ELISA signal, Anti-PSMA Fab in presence of PSMA antigen [1]: 0.0836; Phage binding ELISA signal, Anti-PSMA Fab [2]: 0.81
TIQWCEPLWMCRGF (tested as crude clonal phage supernatant) [Phage-3957]	0.835	0.0643	–	–	–
DSLVCQPRWMCVGF [Phage-3945]	–	–	0.895	0.063	–
DQVMCIPRWMCEGF [Phage-3943]	–	–	0.904	0.0676	–
DIVECRPRWMCDGF (Tested as clonal phage supernatant; not shown: fused to the pIII filament protein of the bacteriophage) [Phage-3934 (Peptide-180 library clone)]	–	–	–	–	Phage binding ELISA signal, Anti-PSMA Fab [5]: 0.936
